Columns and labels:
Assay in all cases: EMSA; 0-1 ug protein; heparin 200 ug/ml added after binding; EMSA: 40 mM Tris pH 8.0, 30 mM KCl, 1 mM MgCl2, 0.01% NP-40, 1 mM DTT, 100 ng/ml yeast tRNA, 20 ul, 30 C 30-60 min, then on ice with heparin 200 ug/ml; 4-6% native PAGE 0.5x TBE, cold room
[1] = biological target: T1, RPRD1B full length (human, UniProt Q9NQG5 2-326); conditions: protein: recombinant; (pET28GST-LIC; 6xHis stated); chain copies: 2
T1 sequence: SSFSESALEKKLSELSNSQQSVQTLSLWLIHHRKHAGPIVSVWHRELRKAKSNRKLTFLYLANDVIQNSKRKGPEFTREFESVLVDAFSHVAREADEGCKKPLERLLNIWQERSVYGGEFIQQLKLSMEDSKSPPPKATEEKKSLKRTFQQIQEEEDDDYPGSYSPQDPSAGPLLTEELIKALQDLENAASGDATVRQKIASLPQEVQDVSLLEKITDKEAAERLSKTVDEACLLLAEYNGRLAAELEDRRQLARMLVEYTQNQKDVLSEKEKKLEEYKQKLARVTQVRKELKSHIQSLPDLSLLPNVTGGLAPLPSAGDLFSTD

[2] = biological target: T2, RPRD1B coiled-coil domain (human, UniProt Q9NQG5 171-304); conditions: protein: recombinant; (pET28GST-LIC; 6xHis stated); chain copies: 2
T2 sequence: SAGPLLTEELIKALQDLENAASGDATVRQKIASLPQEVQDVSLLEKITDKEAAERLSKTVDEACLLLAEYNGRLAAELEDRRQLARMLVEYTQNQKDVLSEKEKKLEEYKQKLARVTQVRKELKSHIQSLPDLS

[3] = biological target: T3, RPRD1B CID (human, UniProt Q9NQG5 2-135); conditions: protein: recombinant; (pET28GST-LIC; 6xHis stated)
T3 sequence: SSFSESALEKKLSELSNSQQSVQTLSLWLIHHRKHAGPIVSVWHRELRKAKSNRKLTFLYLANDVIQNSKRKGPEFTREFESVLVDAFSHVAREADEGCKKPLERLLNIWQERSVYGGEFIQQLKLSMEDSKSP

B1: GEMIN7 exon 2 probe (ssRNA)
RNA: GCGGCUUCUCUGUUGACAACUCAGCUGGUUCCACACCCUGGCAAUUGUGAAGAGUUGGCCAAAUGUUUGUCCACUGAGCUGAUCUCCUCUCUGGAGCACC
binding result [1]: no binding

B2: GEMIN7 3' UTR probe (ssRNA)
RNA: AUUUGAUUUCAUUUUGGGGCGGGCGGUGGCUCGUGCUGGGUCACGUGGUCGUGCCAAGCGCUCCUCCUGUUGCCCCACCUGUGGUUGCUGUGGACUGCAC
binding result [2]: no binding
binding result [1]: binds
binding result [3]: binds
